From article PMC9614721, “Polyvalent Glycan Quantum Dots as a Multifunctional Tool for Revealing Thermodynamic, Kinetic, and Structural Details of Multivalent Lectin–Glycan Interactions” (ACS Applied Materials & Interfaces, 2022)
One block for each molecule: values may come before it.

Legend:
[1] = target: DC-SIGN with its C-terminal 16 amino acids truncated, soluble extracellular segment, Q274C, labeled with Atto-594 (UniProt Q9NNX6); assay: dynamic light scattering; purified lectins in solution; hydrodynamic diameters ~14 nm; identity also checked by HRMS and UV-vis spectroscopy
[2] = target: the molecule itself; assay: as above

stoichiometry N [1]: 4
Molecule: DC-SIGN with its C-terminal 16 amino acids truncated, soluble extracellular segment, Q274C, labeled with Atto-594 (from UniProt Q9NNX6 59-404) (domain or fragment)

B1: DC-SIGNR, soluble extracellular segment, R287C, labeled with Atto-594 (domain or fragment, UniProt Q9H2X3 71-399, looked up)
chain: QVSKVPSSLSQEQSEQDAIYQNLTQLKAAVGELSEKSKLQEIYQELTQLKAAVGELPEKSKLQEIYQELTRLKAAVGELPEKSKLQEIYQELTRLKAAVGELPEKSKLQEIYQELTRLKAAVGELPEKSKLQEIYQELTELKAAVGELPEKSKLQEIYQELTQLKAAVGELPDQSKQQQIYQELTDLKTAFERLCRHCPKDWTFFQGNCYFMSNSQCNWHDSVTACQEVRAQLVVIKTAEEQNFLQLQTSRSNRFSWMGLSDLNQEGTWQWVDGSPLSPSFQRYWNSGEPNNSGNEDCAEFSGSGWNDNRCDVDNYWICKKPAACFRDE
modifications: maleimide-modified Atto-594 dye on the cysteine introduced at R287 (labeling efficiency ~85% per monomer)
notes: DC-SIGNR, soluble extracellular segment; also called a DC-SIGN related lectin found on endothelial cells; source: expressed, purified
stoichiometry N [2]: 4

B2: DC-SIGN, soluble extracellular segment, Q274C, labeled with Atto-594 (domain or fragment, UniProt Q9NNX6 59-404, looked up)
chain: QVSKVPSSISQEQSRQDAIYQNLTQLKAAVGELSEKSKLQEIYQELTQLKAAVGELPEKSKLQEIYQELTRLKAAVGELPEKSKLQEIYQELTWLKAAVGELPEKSKMQEIYQELTRLKAAVGELPEKSKQQEIYQELTRLKAAVGELPEKSKQQEIYQELTRLKAAVGELPEKSKQQEIYQELTQLKAAVERLCHPCPWEWTFFQGNCYFMSNSCRNWHDSITACKEVGAQLVVIKSAEEQNFLQLQSSRSNRFTWMGLSDLNQEGTWQWVDGSPLLPSFKQYWNRGEPNNVGEEDCAEFSGNGWNDDKCNLAKFWICKKSAASCSRDEEQFLSPAPATPNPPPA
modifications: maleimide-modified Atto-594 dye on the cysteine introduced at Q274 (labeling efficiency ~85% per monomer)
notes: DC-SIGN, soluble extracellular segment; also called dendritic-cell-specific intercellular adhesion molecule-3-grabbing nonintegrin; source: expressed, purified
stoichiometry N [2]: 4
